# Experimental data reported in patent US20140296501.
# Like-named read-outs stand apart in the source and are kept apart here.
# Target: EGFR (ERBB1) (UniProt P00533)
Sequence,"Kd (N = BndU (5-benzylaminocarbonyl-2'-deoxyuridine), text prints natural T in the 5' region CCACGCTGGGTGGGTC while listing shows n there [n positions 7,11,15,18,24,25,27,31,36,37,39,40,44,45,47,48,49,53,54 = modified dU])","Kd (N = BndU [n positions 2,8,9,11,15,20,21,23,24,28,29,31,32,33,37,38 = modified dU])"
CCACGCTGGGTGGGTCATCGAGGTTGTGGGTCGGATTGTTGGATTCTTTAAGTTGGGAACACCAACCGAGAACG [EGFR aptamer SEQ ID NO: 4],0.123 nM,–
ATCGAGGTTGTGGGTCGGATTGTTGGATTCTTTAAGTTGGGAACACCAAC [EGFR aptamer SEQ ID NO: 5 (50-mer truncate)],–,0.526 nM
